From the nanobody polyreactivity screen of Harvey et al. (2022)

Assay: yeast display, Sf9 membrane polyspecificity reagent, FACS + sequencing; frameworks hold sequencing errors
Outline: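 Using colony PCR, genes from sorted yeast display clones were amplified, then sequenced on MiSeq at 2 × 250 and filtered by CDR length. The clones had been stained with 10% biotinylated, detergent-solubilized Sf9 membrane reagent for 1 hour at 4 °C and sorted by FACS into low and high (top ~1%) gates on anti-HA and streptavidin fluorescence. Polyreactivity labels come from the gate of origin.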

For “QVQLVESGGGLVQAGGSLRLSCAASGSTFWLYAMGWYRQAPGKERELVAAISSTGNTNYADSVKGRFTISRDNAKNTVYLQMNSLKPEDTAVYYCAADSWDYDSRMDYWGQGTQVTVSS”, which “polyreactivity (PSR sort gate)” value is on record?
Its value is “low polyreactivity”.

Which “polyreactivity (PSR sort gate)” value does the source give for “QVQLVESGGGLVQAGGSLRLSCAASGSTFCYYGMGWYRQAPGTERELVAAISWSGGTFYADSVKGRFTISRDNAKNTVYLQMNSLKPEDTAVYYCATDYGGPITGYEYWGQGTQVTVSS” here?
The value was “low polyreactivity”.

With “QVQLVESGGGLVQAGGSLRLSCAASGFISSENAMGWYRQAPGKERELVAATSSGGSTNYADSVKGRFTISRDNAKNTVYLQMNSLKPEDTAVYYCAALFPKNLQKVGRYDYWGQGTQVTVSS” as the sequence, how does the “polyreactivity (PSR sort gate)” value read?
The value was “low polyreactivity”.

With “QVQLVESGGGLVQAGGSLRLSCAASGRTFIWNAMGWYRQAPGKERELVADISIRGGSTNYADSVKGRFTISRDNAKNTVYLQMNSLKPEDTAVYYCAADYYDSGNDYWGQGTQVTVSS” as the sequence, how does the “polyreactivity (PSR sort gate)” value read?
Its value is “low polyreactivity”.

For “QVQLVESGGGLVQAGGSLRLSCAASGSIFSYYAMGWYRQATAKERDLVAAISTSCGNTYYADSVKGRFTISRDNPKNRVYVQMNSLKPEDTAVYYCAAENVWAWFYGYDYWGQGTQVTVSS”, which “polyreactivity (PSR sort gate)” value is on record?
The value was “high polyreactivity”.

For “QVQLVESGGGLVQAGGSLRLSCAASGSTCDYNAMGWYRQAPGKERELVAAITSTGGNTYYADSVKGRFTISRDKAKNTVYLQMNSLKPADTAVYYCNKDVARYPYGKFDYWGQGTQVTVSS”, which “polyreactivity (PSR sort gate)” value is on record?
Its value is “low polyreactivity”.

With “QVQLVESGGGLVQAGGSLRLSCAASGSIFDNYAMGWYRQAPGKERELVAAITSSGNTSYADSVKGRFTISRDNAKNTVYLQMNSLKPEDTAVYYCNADSQVKYTYNNHFDYWGQGTQVTVSS” as the sequence, how does the “polyreactivity (PSR sort gate)” value read?
Its value is “low polyreactivity”.

For “QVQLVESGGGLVQAGGSLRLRCAASGSTFPPNAMGWYRQAPGKERELVAVISNGGSNTRYADSVKGRFTISRDHAKNTVYLQMNSLKPEDTAVYYCAADYEYSGYGYWGQGTQVTVSS”, which “polyreactivity (PSR sort gate)” value is on record?
The value was “high polyreactivity”.

With “QVQLVESGGGLVQAGGRLRLSCAASGRIFPKNTMGWNRPAPGKERELVAAINWNGGRTYYADSVKGRYTISRDNAKTTVYLQMNSLKPEDTAVYYCAKDGYWVFDYWGQGTQVTVSS” as the sequence, how does the “polyreactivity (PSR sort gate)” value read?
Its value is “low polyreactivity”.

For “QVQLVESGGGLVQAGGSLRISCAASGITFRYYTMGWYRQAPGKERELVAAINYRGGRTYYADSVKGRFTISRDNAKNTVYLQMNSLKPEDTAVYYCNTARVSRLGWSTTSDSWGQGTQVTVSS”, which “polyreactivity (PSR sort gate)” value is on record?
Its value is “high polyreactivity”.

With “QVQLVESGGGLVQAGGSLRLSCAASGFTFYRYPMGWYRQAPGKETELVAAITKRGDRTYYADSVKGRFRISRDNAKNTVFLQMSSLKPEDTAVYFCASDPYYSVSYWLAYDYWGQGTQVTVSS” as the sequence, how does the “polyreactivity (PSR sort gate)” value read?
The value was “high polyreactivity”.

With “HVQLVESGGGLVQAGGSLRLSCAASGRIFGAYAMGWYRQAPGKEREFVAAITSRGGNTYYADSVKGRFTISRDNAKNTVYLQMNSLIPEDTAVYYCAARHDKRRQYYVGQSAFDYWGQGTQVTVSS” as the sequence, how does the “polyreactivity (PSR sort gate)” value read?
The value was “low polyreactivity”.

Which “polyreactivity (PSR sort gate)” value does the source give for “QVQLVESGGGLVQAGGSLRLSCAASGYISFGYAMGWYRQAPGKEREFVAAISVGGGTTYYADSVKGRFTISRDNAKNTVYLQMNSLKPEDTAVYYCAVGKYNYRGSWDYYWGQGTQVTVSS” here?
The value was “high polyreactivity”.

For “QVQLVESGGGLVQAGGSLRLSCAASGSTLRRYAMGWYRQAPGKERELVAAISGTGSRTYYADSVKGRFTISRDNAKNTVYLQMNSLKPEDTAVYYCNASPYRLTENDYWGQGTQVTVSS”, which “polyreactivity (PSR sort gate)” value is on record?
The value was “high polyreactivity”.

Which “polyreactivity (PSR sort gate)” value does the source give for “QVQLVESGGGLVQAGGSLRLSCAASGFIFVTNVMGWYRQAPGKERELVAAISRRGTNTYYADSVKGRFTISRDNAKNTVYLQMNSLKPEDTAVYYCNKLVFHTGGFRYDYWGQGTQVTVSS” here?
The value was “high polyreactivity”.

For “QVQLVESGGGLVQAGGSLRLSCAASGRIFFKNAMGWYRQAPGKERELVAAITWSGGRTYYADSVKGRFTISRDNAKNTVYLQMNSLKPEDTAVYYCNALAPSPYDWGQGTQVTVSS”, which “polyreactivity (PSR sort gate)” value is on record?
Its value is “high polyreactivity”.

With “QVQLVESGGGLVQAGGSLRLSCAASGITFYLYAMGWYRQAPGKERELVASITTDDSTNYADSVKGRFTISRDNAKNTVYLLMNSLKPEDTAVYYCATASYHRHHHGYDYWGQGTQVTVSS” as the sequence, how does the “polyreactivity (PSR sort gate)” value read?
The value was “low polyreactivity”.

For “QVQHVESGGGLVQAGGSLRLSCAASGFIYSTNAMGWYRQAPGKERELVATIRSGGSTNYADSVKGRFTISRDNAKNTVYLQMNCLQPEDTAVYYCNVDDTSWTTSGGRFGQVESDYWGQGTQVTVSS”, which “polyreactivity (PSR sort gate)” value is on record?
The value was “low polyreactivity”.

Which “polyreactivity (PSR sort gate)” value does the source give for “QVQLVESGAGLVQAGGSLRLSCAASGSTFYGYGMGWYRQAPGKERELVAAITGSGDTTYYADSVKGRFTISRDNAKNTVYLQMNSLKPEDTAVYYCNARWHAEYDYWGQGTQVTVSS” here?
The value was “low polyreactivity”.

For “QVQLVESGGGLVQAGGSLRLSCAASGRIFKGNAMGWYRQAPGKERELVAAISRNGGSTYYADSVKGRFTISRDNAKNTVSLLMNSLKPEDTAVYYCAAYGYRYTEGGWWRMDYWGQGTEVTVSS”, which “polyreactivity (PSR sort gate)” value is on record?
Its value is “high polyreactivity”.

For “QVQLVESGGGLVQAGGSLRLRCAASGRIFGYYPMGWYRQAPGKERELDADITESGTSTYYADSVKGRFTISRDNAKNTVYLQMNSLKRVDTAVYYCAAGYWWRYALYGYWGQGTQVTVSS”, which “polyreactivity (PSR sort gate)” value is on record?
The value was “low polyreactivity”.

For “QVQLVESGGGLVQAGGSLRLSCAASGSTFDDNAMGWYRQAPGKERELVAAINGDGITTYADSVKGRFTISRDNAKNTVYLQMNSMKPEDTAVYYCNTVGIGAWGYSYPDEDNYWGQGTQVTVSS”, which “polyreactivity (PSR sort gate)” value is on record?
The value was “low polyreactivity”.
